Results reported in the DeepSol protein solubility set.

Experiment: soluble on expression in E. coli; label from the status in PepcDB or PDB records

Sequence	soluble on expression in E. coli
MNIAIGTTQDRALYEDALRVRRLVFIEEQNVPEDEEIDAFEDDSFHLVLYDGQTPVGAGRLRFIDEGVGKIERICVLPSYRGRGAGRMVMEAIEQLAKTKGAKTAKLNAQTHAEPFYQKLGYTTVSGVFMDAGIPHVTMVKSLE	soluble
MMKTRGFELITDYTDENLLPKRETAHAAGYDLKVAERTEISAGAIVLVPTGVKAYMQVGEVLYLFDRSSNPRKKGLVLINSVGVIDGDYYNNPNNEGHIFAQMKNMTDQTVVLEAGERVVQGVFMPFLLIDGDKATGTRTGGFGSTGG	soluble
MSLSLMLTVETRQAVNPDYAKTLDTEGLRRHFLANDMFRSGEIRLIYTHYDRFVMGGAVPNGAPLTLDKVEETKTPSFLDRREMGIVNIGETGTVSAGDETYTLNRGDVLYLGAGSRAVTFDGAGRFYITSCPAHRSLPAKLVSLADSKEVKLGATETSNKRTINQFIHPLVMESCQLVLGYTMLEDGSVWNTIPSHIHDRRMEAYLYFGMDEKSRVLHLMGEPQETRHLFISNEEGAISPPWSIHSGAGIGSYTFIWAMAGDNVDYTDMDFIQPGDLKEGHHHHHH	soluble
GPGGSPGGLQKRHARVTVKYDRRELQRRLDVEKWIDGRLEELYRGREADMPDEVNIDELLELESEEERSRKIQGLLKSCTNPTENFVQELLVKLRGLHK	soluble
MSSSPSLPSSASVPAAFDRAPVSGLPDNAIEIDALRKVYGGGKVALESLSLAIPRGSFFGLLGPNGAGKSTLINIMAGLVRKTSGRVRIWGNDIDTDERAARCAIGIVPQELSFDPFFTPREMLDVQAGLYGVPKAERRTLEILRAVGLEDKADAYSRTLSGGMRRRLLVAKAMVHSPPILVLDEPTAGVDIELRQQLWAYVRDLNARGTTVLLTTHYLEEAEELCDRIAIIDHGKVVVSEPTTTLLGRLDNKSLTLRLAQPLDAPPPALAALGAELRDPYHLVITYHPSSLPMARILDAARAGGLTIADLTTREADLEDVFLRLTSSHHRAQEIGLEHHHHHH	soluble
MSFTTKVKEELIHLSTGDNNELAAIIKLSGSLGLAHQSLHLSITTENAKIARYIYSLIEDAYVIVPEIRYHQKTNLRKNRVYTVYVEQGVETILADLKLADSFFGLETGIEPQVLSDDNAGRSYLKGAFLAAGSIRDPESGKYQLEIYSVYLDHAQDLAQLMQKFMLDAKTIEHKSGAVTYLQKAEDIMDFLIIIGAMSCKEDFEAIKLLREARNDINRANNAETANIAKTISASMKTINNIIKIMDTIGLESLPIELQQVAQLRVKHPDYSIQQVADALEFPITKSGVNHRLRKINKIADDL	not soluble
MSKQDLLLEIGLEEMPARFLNESMVQLGDKLTGWLKEKNITHGEVKLFNTPRRLAVFVKDVAEKQDDIKEEAKGPAKKIALDADGNWTKAAIGFSKGQGANVEDLYIKEVKGIEYVFVQKFQAGQETKSLLPELSGLITSLHFPKNMRWGNEDLRYIRPIKWIVALFGQDVIPFSITNVESGRTTQGHRFLGHEVSIESPSAYEEQLKGQHVIADPSVRKQMIQSQLETMAAENNWSIPVDEDLLDEVNHLVEYPTALYGSFESEFLSIPEEVLVTTMKEHQRYFPVKDKNGDLLPHFITVRNGNSHAIENVARGNEKVLRARLSDASFFYKEDQKLNIDANVKKLENIVFHEELGSLADKVRRVTSIAEKLAVRLQADEDTLKHVKRAAEISKFDLVTHMIYEFPELQGIMGEKYARMLGEDEAVAAAVNEHYMPRSAGGETPSTFTGAVVAMADKLDTIASFFSIGVIPTGSQDPYGLPRQASGIVAILLDRNWGISFEELLTFVQTDKENELLDFFTQRLKYVLNAEQIRHDVIDAVLESSELEPYSALHKAQVLEQKLGAPGFKETAEALGRVISISKKGVRGDIQPDLFENEYEAKLFDAYQTAKENLQENFSKKDYEAALASLAALKEPIDAYFDHTMVIADNESLKANRLAQMVSLADEIKSFANMNALI	not soluble
MGSDKIHHHHHHMEYVNIKLPYDKKQITAKIYKRNLAGILVSKSENYKNSLSEKELVEKSLDNPIASPKLEELVKGKKNIVLISSDHTRPVPSKIITPILLRRIRSVEPNANIIILVATGFHRPSTHEELVDKYGEEIVKRENIVMHVSTDDSAMVQIGTLPSGGPCIINKIAAEADLLIAEGFIESHFFAGFSGGRKSVLPGIASYKTIMANHCGEFINSNKARTGNIKCNPIHEDMVYAARTAGLKFILNVVLDGNKKIIGSFAGDVEKAHETGCDFVKDLARVKKVPCDIAVSTNGGYPLDQNIYQAVKGMTAAEATNKENGVIIMVAGCRDGHGGEGFYKNLANVKTPEEFLEKAIHTERQKTIPDQWTSQILARILSKHHVIMVSDLVDQKLICGMHMELVSNFEEALERAYKIEGKDAKVTVIPDGLSVIVE	not soluble
MDNKIMLRNRYISKIQNKLRDLTDSINFLSEIDQAILNQTAGAGPGAAGPGAAPDRSSTINLQALREKLTTLNTDDGPTRTAIRDKTAAIQTSIRDINLKLEELMKNINTSAGKLADAVSAIPTPTDDLGAAGAAGAAGAAGAAAGAGAGAA	not soluble
MELVATQDGFVGEMARGFTFQALGEVAAGFGKRLQAEGIPRVVVGHDARFLAREMAEHAAGVLGGLGLEVHLLQGPAPLPLFGFALRAKEAAGLYLTGSRRPFAFQGVKLRLGPGRPLPREGGGPRTPPSPGPFAPLEARRDYLDHLRKSAQGLALKRGVVYLDAMGGAGGGILGQVLKRLEAPVELRELHPLPHPLFYGVAPDPRPEHLRTLRLLLREAKPPALGLALDGDADRLGVYLPGGEALPGDQALARLREAAQGREVEALGEGAYRFPWHLEEPDPFLAALLLMGVLL	soluble
MPSFDIVSEITLHEVRNAVENANRVLSTRYDFRGVEAVIELNEKNETIKITTESDFQLEQLIEILIGSCIKRGIEHSSLDIPAESEHHGKLYSKEIKLKQGIETEMAKKITKLVKDSKIKVQTQIQGEQVRVTGKSRDDLQAVIQLVKSAELGQPFQFNNFRD	soluble
MAMIKQILRLLFLLAMYELGKYVTEQVYIMMTANDDVEAPSDYVFRAEVSELEHHHHHH	not soluble
MAAKNAFYAQSGGVTAVINASAAGVIEAARKQSGKIGRIYAGRNGIIGALTEDLIDTGQESDAAISALRYTPSGAFGSCRYKLKSLEQNRREYERLIEVFKAHDIGYFFYNGGGDSADTCLKVSQLSGTLGYPIQAIHVPKTVDNDLPITDCCPGFGSVAKYIAVSTLEASFDVASMSATSTKVFVLEVMGRHAGWIAAAGGLASSPEREIPVVILFPEISFDKQKFLAKVDSCVKKFGYCSVVVSEGVKGDDGKFLSDQGVRDAFGHAQLGGVAPVVASMVKEGLGLKYHWGVADYLQRAARHIASKTDVEQAYAMGQAAVEFAVQGHNSVMPTIERISARPYQWKVGMAQLSQVANVEKMMPENFITEDGFGITDLCREYLAPLIEGEDYPPYKDGLPDYVRLKNVAVPKKLSGFTLLEHHHHHH	not soluble
MKWSEYANLAQQSLEKFYLADTKEQFLNNFYPTENPEEDNKVFNYWWLAHLVEVRLDAYLRTKKQADLEVAEKTYLHNKNRNGGTLIHDFYDDMLWNALAAYRLYKATGKSIYLEDAQLVWQDLVDTGWNDIMGGGFAWRRPQMYYKNTPVNAPFIILSCWLYNELNETKYLEWAMKTYEWQTKVLVREDGFVEDGINRLEDGTIDYEWKFTYNQGVYIGANLELYRITKEAKYLDTANKTAAISLKELTEDGIFKDEGNGGDEGLFKGIFYRYFTDLIEETANKTYRDFVLNSCQILVENAKLDGYLLMGMNWKEKPSGKIPYSAELSGMIALEMAAKLELEHHHHHH	soluble
MQIRFAGIGGQGVVLAGVILGEAAAIEGLRVLQTQDYSSASRGGHSIADVIISNEEIYDVMVTEADVLVALHQLGYETAKSKLKKDGILIIDTDLVKPDREYIGAPFTRIAEETTGLALTVNMVALGYLIGKTQIVKPESVEEAIRRRVPKGTEEINIKAFRKGLEVSMNE	not soluble
MSLSNPLNDLSKKYLTKGLNLASWAEANKITSANPKDWKYNEAIIKLQAEQGLLGIRFPIDLDLYVVDRLNVLNGTKKKIEIEPMLYTLMDSMNIWTKRYGLSLTIDYHAYDGSYNRASSKDPKFREAVSSLWRVVAQHFVKEKREDLFFELTNEPCLSLPEGEYIDQTDWTLLAQMMIDSIRRVDKTRPIIFGDTKWYSLDELIKNKPLKDPYVIYCFHMYDPFLFTHQGASWANMGTMKNIPFPYSPERWSTEFRDFGIVDGTPAWVKDLAKRYYQEGNKQFIKNRLAKVKNWAYEYNVPLICNEWGALPNTAKIEDLNAYFKTMGEIFEEMDISWQVWFGIMDSDYKLLPGMAEALHLKEGHHHHHH	soluble
MAKVVVLGAGVSGHTCASFLKKKLGKQHEVVVISPNSYYQWIPSNIWVGVGHMTIDDVRFKLKKVYDRWGIDYKQAKAVSIHPEGDANISKGYVTIEYTDEEHAGYTETVDYDYLVNATGPKLNFEATEGLGPDKNSLSVCTYSHAAHAWEELQKSIEKMKNGQKQRFLIGTGHAMATCQGAAFEYILNVAHEISRRGLSHMAELTWISNEYELGDFGMGGAFIKRGGYITPTKVFTESLLAEYGIKWIRRAGVYKVEPGVAHYETLDGEMLSQEFDFAMLIPSFSGVGLTAFDKSGNDITDKMFLPNKFMKVDADYTAKPFGEWGANDWPTIYQTPMYSNIYAAGIAFAPPHSISKPMTSVNGRQIFPTPPRTGMPSGVIGKIIALNISEQIKGNHKEHHHKASMARMGAACIVSAGFGSFDGLGASMTVFPIVPDWEKYPEWGRDMTYSVGEVGLAGHWLKFMLHYLFFHKAKGYPFWYLIPELEHHHHHH	not soluble
MKKWAVWLCSLLLLLPLSACTNDGGQSEKPLKKVRLAEVTHSIFYAPQYVALAKGFFKEEGLDVELTTTWGGDKTMTTLLSGGADIALVGSETSIYVYSQGTDDPVINFAQLTQTDGTFLVSRKKIGHFTWEMLKGSTFLGQRKGGMPQMVGEFVLKKHGIDPHQDLKLIQNVDFANIANAFASGTGDFVQLFEPTASLFEQEGKGYIVASFGTESGRVPYTSYMAKRSYMNENKDVIEKFTRAIYKAQQWVESHSAAEIAKAIQPYFKDTDSAIIEKVVERYKSQGTYATDPILDEEEWNNLQTIMAEAGELPKRIDLNTLVDSSFAKNAMND	not soluble
MAHHHHHHMFRSEAHFRMLANLRFLELQKLLLNRFQIFKNEEITVLKKGSMKTILYEWAEFLTKEQRATNMTHIPDEVLQSKRVADILRDDVECRWLVGRINVGAVSGVSGVSPPSPLSGAHLARDDAALSKVDQLHLDEYPDLFHYEYPQFPYDYYDKKKMSNFYSLMKFPYNDILNISKRIKREVSPPGGDAKEGEMRQMEEPRGGALESAGVDVVDDDFVSYSSNSYVYAPSEMETSKENYHE	not soluble
MSLNAPQWLGAEGEKIAARHLAAKGYRIVARNYRFHRNEIDIIAFDGEALCFIEVKTRASLGKGHPAESVTRSKQKEIARAAAGYLASLDDPWITCRFDVIAVLALSIDERSIRKYEIEHIKAAFMVGDKGEGHHHHHH	soluble
MMIMLDPFSEKAKELLKGFGSINDFMDAIPKIVSVDDVIERIRVVKNEKLIDKFLDQDNVMDLAQFYALLGALSYSPYGIELELVKKANLIIYSERLKRKKEIKPEEISIDVSTAIEFPTEDVRKIERVYGKIPEYTMKISDFLDLVPDEKLANYYIYEGRVYLKREDLIRIWSKAFERNVERGVNMLYEIRDELPEFYRKVLGEIQAFAEEEFGRKFGEIQGGKLRPEFFPPCIKNALKGVPQGIRNYAITVLLTSFLSYARICPNPPRRNVRVKDCIKDIRVITEEILPIIIEAANRCSPPLFEDQPNEIKNIWYHLGFGYTANPSLEDSGNSTWYFPPNCEKIRANAPQLCTPDKHCKYIRNPLTYYLRRLYLEGRRNAPKRGNKRGKKELLHQLEHHHHHH	soluble
MSGLRVYSTSVTGSREIKSQQSEVTRILDGKRIQYQLVDISQDNALRDEMRTLAGNPKATPPQIVNGNHYCGDYELFVEAVEQDTLQEFLKLA	soluble
